Results as given in the Human Domainome abundance scans (Beltran et al. 2025).
± gives the uncertainty stated by the source.

B1: POU domain, class 3, transcription factor 1, residues 247 to 324; numbered along this chain, Q03052 (parent)
chain: EDAPSSDDLEQFAKQFKQRRIKLGFTQADVGLALGTLYGNVFSQTTICRFEALQLSFKNMCKLKPLLNKWLEETDSSS

Variants of: B1
Assay: abundance fitness (aPCA) (normalised: wild type 0, dead -1); higher = more abundant; growth selection in yeast, the domain comes from the species named
Details: Homo sapiens

Variant | abundance fitness
EDAPSSDDLEQFAKQFKQRRIKLGFTQADVGLALGTLYGNVFSQTTICRFEALQASFKNMCKLKPLLNKWLEETDSSS [L55A] | -0.54 ± 0.098
EDAPSSDDLEQFAKQFKQRRIKLGFTQADVGLALGTLYGNVFSQTTICRFEALQYSFKNMCKLKPLLNKWLEETDSSS [L55Y] | -0.46 ± 0.2
EDAPSSDDLEQFAKQFKQRRIKLGFTQADVGLALGTLYGNVFSQTTICRFEALQESFKNMCKLKPLLNKWLEETDSSS [L55E] | -0.438 ± 0.085
EDAPSSDDLEQFAKQFKQRRIKLGFTQADVGLALGTLYGNVFSQTTICRFEALQGSFKNMCKLKPLLNKWLEETDSSS [L55G] | -0.514 ± 0.059
EDAPSSDDLEQFAKQFKQRRIKLGFTQADVGLALGTLYGNVFSQTTICRFEALQNSFKNMCKLKPLLNKWLEETDSSS [L55N] | -0.2 ± 0.17
EDAPSSDDLEQFAKQFKQRRIKLGFTQADVGLALGTLYGNVFSQTTICRFEALQCSFKNMCKLKPLLNKWLEETDSSS [L55C] | -0.064 ± 0.081
EDAPSSDDLEQFAKQFKQRRIKLGFTQADVGLALGTLYGNVFSQTTICRFEALQQSFKNMCKLKPLLNKWLEETDSSS [L55Q] | -0.645 ± 0.16
EDAPSSDDLEQFAKQFKQRRIKLGFTQADVGLALGTLYGNVFSQTTICRFEALQKSFKNMCKLKPLLNKWLEETDSSS [L55K] | -0.535 ± 0.16
EDAPSSDDLEQFAKQFKQRRIKLGFTQADVGLALGTLYGNVFSQTTICRFEALQSSFKNMCKLKPLLNKWLEETDSSS [L55S] | -0.323 ± 0.1
EDAPSSDDLEQFAKQFKQRRIKLGFTQADVGLALGTLYGNVFSQTTICRFEALQHSFKNMCKLKPLLNKWLEETDSSS [L55H] | -0.359 ± 0.18
EDAPSSDDLEQFAKQFKQRRIKLGFTQADVGLALGTLYGNVFSQTTICRFEALQPSFKNMCKLKPLLNKWLEETDSSS [L55P] | -0.867 ± 0.18
EDAPSSDDLEQFAKQFKQRRIKLGFTQADVGLALGTLYGNVFSQTTICRFEALQTSFKNMCKLKPLLNKWLEETDSSS [L55T] | -0.746 ± 0.15
EDAPSSDDLEQFAKQFKQRRIKLGFTQADVGLALGTLYGNVFSQTTICRFEALQVSFKNMCKLKPLLNKWLEETDSSS [L55V] | -0.45 ± 0.087
EDAPSSDDLEQFAKQFKQRRIKLGFTQADVGLALGTLYGNVFSQTTICRFEALQMSFKNMCKLKPLLNKWLEETDSSS [L55M] | -0.132 ± 0.095
EDAPSSDDLEQFAKQFKQRRIKLGFTQADVGLALGTLYGNVFSQTTICRFEALQWSFKNMCKLKPLLNKWLEETDSSS [L55W] | -0.764 ± 0.1
EDAPSSDDLEQFAKQFKQRRIKLGFTQADVGLALGTLYGNVFSQTTICRFEALQDSFKNMCKLKPLLNKWLEETDSSS [L55D] | -0.479 ± 0.17
EDAPSSDDLEQFAKQFKQRRIKLGFTQADVGLALGTLYGNVFSQTTICRFEALQFSFKNMCKLKPLLNKWLEETDSSS [L55F] | -0.311 ± 0.2
EDAPSSDDLEQFAKQFKQRRIKLGFTQADVGLALGTLYGNVFSQTTICRFEALTLSFKNMCKLKPLLNKWLEETDSSS [Q54T] | -0.145 ± 0.064

Variant | abundance fitness
EDAPSSDDLEQFAKQFKQRRIKLGFTQADVGLALGTLYGNVFSQTTICRFEALWLSFKNMCKLKPLLNKWLEETDSSS [Q54W] | -0.669 ± 0.11
EDAPSSDDLEQFAKQFKQRRIKLGFTQADVGLALGTLYGNVFSQTTICRFEALVLSFKNMCKLKPLLNKWLEETDSSS [Q54V] | -0.497 ± 0.1
EDAPSSDDLEQFAKQFKQRRIKLGFTQADVGLALGTLYGNVFSQTTICRFEALQLSCKNMCKLKPLLNKWLEETDSSS [F57C] | -0.394 ± 0.14
EDAPSSDDLEQFAKQFKQRRIKLGFTQADVGLALGTLYGNVFSQTTICRFEALQLSMKNMCKLKPLLNKWLEETDSSS [F57M] | -0.048 ± 0.086
EDAPSSDDLEQFAKQFKQRRIKLGFTQADVGLALGTLYGNVFSQTTICRFEALQLSYKNMCKLKPLLNKWLEETDSSS [F57Y] | 0.37 ± 0.17
EDAPSSDDLEQFAKQFKQRRIKLGFTQADVGLALGTLYGNVFSQTTICRFEALQLSKKNMCKLKPLLNKWLEETDSSS [F57K] | 0.005 ± 0.094
EDAPSSDDLEQFAKQFKQRRIKLGFTQADVGLALGTLYGNVFSQTTICRFEALQLSSKNMCKLKPLLNKWLEETDSSS [F57S] | -0.152 ± 0.072
EDAPSSDDLEQFAKQFKQRRIKLGFTQADVGLALGTLYGNVFSQTTICRFEALQLSLKNMCKLKPLLNKWLEETDSSS [F57L] | 0.003 ± 0.062
EDAPSSDDLEQFAKQFKQRRIKLGFTQADVGLALGTLYGNVFSQTTICRFEALQLSWKNMCKLKPLLNKWLEETDSSS [F57W] | -0.127 ± 0.066
EDAPSSDDLEQFAKQFKQRRIKLGFTQADVGLALGTLYGNVFSQTTICRFEALQLSVKNMCKLKPLLNKWLEETDSSS [F57V] | -0.144 ± 0.057
EDAPSSDDLEQFAKQFKQRRIKLGFTQADVGLALGTLYGNVFSQTTICRFEALQLSAKNMCKLKPLLNKWLEETDSSS [F57A] | -0.142 ± 0.064
EDAPSSDDLEQFAKQFKQRRIKLGFTQADVGLALGTLYGNVFSQTTICRFEALQLSIKNMCKLKPLLNKWLEETDSSS [F57I] | -0.273 ± 0.16
EDAPSSDDLEQFAKQFKQRRIKLGFTQADVGLALGTLYGNVFSQTTICRFEALQLSQKNMCKLKPLLNKWLEETDSSS [F57Q] | 0.015 ± 0.11
EDAPSSDDLEQFAKQFKQRRIKLGFTQADVGLALGTLYGNVFSQTTICRFEALQLSHKNMCKLKPLLNKWLEETDSSS [F57H] | 0.031 ± 0.13
EDAPSSDDLEQFAKQFKQRRIKLGFTQADVGLALGTLYGNVFSQTTICRFEALQLSPKNMCKLKPLLNKWLEETDSSS [F57P] | -0.014 ± 0.084
EDAPSSDDLEQFAKQFKQRRIKLGFTQADVGLALGTLYGNVFSQTTICRFEALQLSTKNMCKLKPLLNKWLEETDSSS [F57T] | -0.047 ± 0.091
EDAPSSDDLEQFAKQFKQRRIKLGFTQADVGLALGTLYGNVFSQTTICRFEALQLSRKNMCKLKPLLNKWLEETDSSS [F57R] | -0.012 ± 0.046
